Results from patent publication US20230149544A1 (ALTRUBIO, published 2023).

Target: T1, human PSGL-1 (human, UniProt Q14242 42-412)
T1 sequence: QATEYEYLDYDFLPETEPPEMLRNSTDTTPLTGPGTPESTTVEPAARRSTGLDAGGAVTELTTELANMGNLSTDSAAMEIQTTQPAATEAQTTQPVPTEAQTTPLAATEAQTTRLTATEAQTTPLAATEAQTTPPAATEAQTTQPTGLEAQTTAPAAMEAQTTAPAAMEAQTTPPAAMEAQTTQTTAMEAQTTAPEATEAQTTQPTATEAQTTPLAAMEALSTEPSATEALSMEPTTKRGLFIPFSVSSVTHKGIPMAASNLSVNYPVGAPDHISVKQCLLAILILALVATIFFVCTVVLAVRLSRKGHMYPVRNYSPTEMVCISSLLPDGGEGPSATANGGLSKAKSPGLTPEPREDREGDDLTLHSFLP
Experiment: cell-based or functional assay

EC50 15A7H, single treatment; apoptosis of activated T cells (Annexin V/PI, 48 h, with cross-linker), donor N084, ratio block 1.1:1: 0.328 µg/mL | EC50 15A7H, single treatment; apoptosis of activated T cells (Annexin V/PI, 48 h, with cross-linker), donor N084, ratio block 3.3:1: 0.328 µg/mL | EC50 15A7H, single treatment; apoptosis of activated T cells (Annexin V/PI, 48 h, with cross-linker), donor N089, ratio block 1.1:1: 0.816 µg/mL | EC50 15A7H, single treatment; apoptosis of activated T cells (Annexin V/PI, 48 h, with cross-linker), donor N089, ratio block 3.3:1: 0.865 µg/mL | EC50 15A7H, single treatment; apoptosis of activated T cells (Annexin V/PI, 48 h, with cross-linker), donor N102, ratio block 0.37:1: 0.959 µg/mL | EC50 15A7H, single treatment; apoptosis of activated T cells (Annexin V/PI, 48 h, with cross-linker), donor N102, ratio block 1.1:1: 0.959 µg/mL | EC50 15A7H, single treatment; apoptosis of activated T cells (Annexin V/PI, 48 h, with cross-linker), donor N102, ratio block 3.3:1: 0.959 µg/mL | EC50 15A7H, single treatment; apoptosis of activated T cells (Annexin V/PI, 48 h, with cross-linker), donor N103, ratio block 0.37:1: 1.4 µg/mL | EC50 15A7H, single treatment; apoptosis of activated T cells (Annexin V/PI, 48 h, with cross-linker), donor N103, ratio block 1.1:1: 1.4 µg/mL | EC50 15A7H, single treatment; apoptosis of activated T cells (Annexin V/PI, 48 h, with cross-linker), donor N103, ratio block 3.3:1: 1.4 µg/mL
B1: anti-PSGL-1 antibody 15A7H (antibody, human IgG4 S228P, kappa, V domains shown)
VH: EVQLVESGGGLVQPGGSLRLSCAASGFTFSSFGMHWVRQAPGKGLEWVAYINGGSSTIFYANAVKGRFTISRDNAKNTLYLQMNSLRAEDTAVYYCARYASYGGGAMDYWGQGTLVTVSS
VL: DIQMTQSPSSLSASVGDRVTITCRSSQSIVHNDGNTYFEWYQQKPGKAPKLLIYKVSNRFSGVPSRFSGSGSGTHFTLTISSLQPEDFATYYCFQGSYVPLTFGQGTKVEIKR
